For orientation: t½ means the time needed for the level to fall by half in the phase considered. A high value points to slow loss.

Consider four molecules from patent EP3418383A1, “MODIFIED L-ASPARAGINASE” (XL-protein GmbH, priority 2017, dated 2018).

The nature of data set [1]: L-asparaginase aminohydrolase activity, Nessler reagent assay (Example 1). Type of data set: biochemical. Conditions: for Enzyme activity compared to the equally assayed non-modified Crisantaspase: Nessler assay of Example 1. As for the experimental part: The modified proteins were purified by anion exchange chromatography (AEX) on a MonoQ HR5/5 column (GE Healthcare) using 25 mM Na-borate pH 9.0, 1 mM EDTA as running buffer and a NaCl concentration gradient from 0 to 1 M to elute the proteins. L-asparaginase aminohydrolase activity of each Crisantaspase modified protein was determined by reaction of ammonia that is liberated via L-asparagine enzymatic activity with the Nessler reagent. Briefly, 50 µL of enzyme solution was mixed with 20 mM of L-asparagine in a 100 mM sodium borate buffer pH 8.6 containing 0.015 % (w/v) bovine serum albumin and incubated for 15 min at 37 °C. The reaction was stopped by addition of 200 µL of Nessler reagent (Sigma-Aldrich). Absorbance of this solution was measured at 450 nm. The activity was calculated from a calibration curve that was obtained from ammonium sulphate as reference. Table 2: Enzymatic activities of Crisantaspase conjugated with Pga-P/A(20)-Ahx peptide in different amounts

Data set [2] is described as follows: L-asparaginase enzyme activity, Nessler endpoint assay, specific activity (Example 8). Type of data set: biochemical. Conditions: Crisantaspase expression system E. coli; for Nessler (Average): average of plates 1-3; for Nessler Plate 1 / Nessler Plate 2 / Nessler Plate 3: specific activity. On the procedure: PASylated L-asparaginase enzyme activity was determined by catalysis of the conversion of L-asparagine into L-aspartic acid. This reaction liberates one mole of ammonia per mole of converted L-asparagine. The released ammonia is detected using Nessler's reagent. In the presence of Nessler's reagent the ammonia will form a watersoluble yellow complex that can be quantified by absorbance measurement at 450 nm (Mashburn et al. (1963) Biochem. Biophys. Res. Commun. 12, 50). One unit of L-asparaginase enzyme activity (International Unit or IU) is defined as the amount of enzyme that catalyzes the conversion of one µmol of L-asparagine per minute. The specific activity of the samples (IU/mg) is determined by dividing the value of L-asparaginase activity expressed in IU/mL by the protein concentration expressed in mg/mL. The mass of the protein monomer with the PASylated sequence was measured.
The measurement of L-asparaginase activity is based on an endpoint assay in which the sample is diluted to a series of final enzyme concentrations which are then incubated at 37°C under saturating L-asparagine concentration for 15 minutes. The reaction is stopped by addition of Nessler's reagent and the amount of ammonia produced by the reaction is extrapolated from a calibration curve constructed from known quantities of ammonium sulfate used as standard. A plot of enzyme concentration versus ammonia is then created for each sample and the slope of the curve divided by the reaction time to obtain the specific activity in IU/mg. Specific activity is reported as IU/mg and is reported to the nearest whole number.

Data set [3] can be described thus: Pharmacokinetics, plasma asparaginase activity after single IV bolus dose. The conditions noted are these: single IV bolus 25 IU/kg body weight, male CD-1 mice, non-compartmental. Type of data set: in vivo. On the procedure:
The pharmacokinetic profile of E. coli expressed recombinant crisantaspase as a PASylated fusion protein (PA-200) or chemically conjugated to PA-peptides (PA-20) was characterized following administration of a single intravenous bolus dose to CD-1 mice. The CD-1 mice is a model for a healthy mouse.
All animals received a single intravenous (IV) bolus via the lateral tail vein (10 mL/kg) based on the body weight taken prior to dosing. Individual doses were calculated based upon the most recent individual body weights to provide the proper dose. The first day of dosing was based on study day 0 body weights.
PASylated asparaginase was administered as a single IV dose of 25 IU/kg body weight to mice. […] Asparaginase activity in mouse plasma was measured using a qualified biochemical assay as described in the previous examples. […]
Asparaginase activity was measured as the concentration of asparaginase in the plasma samples as previously described (Allas et al. (2009) Blood, 114, 2033). […] The plasma asparaginase activity versus time data were analyzed using non-compartmental methods with sparse sampling in an IV bolus administration model. Activity values below the limit of quantitation of the assay (10 U/L) were set to zero in the calculation of group means. […]

Data set [4] in a line: Analytical gel filtration (SEC), hydrodynamic volume / apparent molecular size. Conditions: tetramer, Superdex S200 10/300 GL, PBS, 1 mg/ml. The data set is classed as physicochemical. An excerpt: In order to avoid polymerization of the peptides upon chemical activation of the C-terminus, the N-terminus was protected with pyroglutamyl (Pga) residue. Aminohexanoic acid (Ahx) was incorporated at the C-terminus of the peptides to serve as linker. […] The hydroxybenzotriazol (HOBt) active ester of the peptide is subsequently used to derivatize the amino groups (ε-amino groups of lysine residues or α-amino group of N-terminus) of Crisantaspase with the P/A peptide through formation of peptide or isopeptide bonds, while free HOBt is released. This coupling step is performed in aqueous solution (e.g. PBS buffer) with a content of organic solvent ≤ 30 %. […] The number of coupled P/A peptides can be determined by counting the bands in that ladder starting from the unconjugated Crisantaspase as marked on the right. […] Separation of remaining uncoupled peptide and other non-proteinous byproducts of the chemical conjugation devoid of UV absorption at 280 nm was monitored by the 225 nm UV trace. […]
(Size exclusion chromatography separates by hydrodynamic size, large species first.)

The conditions of data set [5]: PEGylated enzyme compared to the unmodified L-asparaginase; cited from earlier work.
For data set [6] the following is noted: children who received the drug; cited from earlier work.
Where [7] appears, read: 3.5 mg PA peptide/mg Crisantaspase, 10.4 mol PA peptide/mol monomer.
The mark [8] stands for this setting: 5 mg PA peptide/mg Crisantaspase, 11.2 mol PA peptide/mol monomer.
The mark [9] stands for this setting: 7.5 mg PA peptide/mg Crisantaspase, 11.7 mol PA peptide/mol monomer.
The mark [10] stands for this setting: 10 mg PA peptide/mg Crisantaspase, 12.0 mol PA peptide/mol monomer.

In the case of “Pyroglutamoyl-P/A(20)-aminohexanoyl-Crisantaspase”, the Rel. activity in data set [1] (setting [7]) is listed as 94.1%; in data set [1] (setting [8]), 80.7%; in data set [1] (setting [9]), 74.3%; in data set [1] (setting [10]), 47.4%. Moreover, the Specific activity in data set [1] (setting [7]) turned out to be 508 ± 20 U/mg; in data set [1] (setting [8]), 436 ± 22 U/mg; in data set [1] (setting [9]), 401 ± 21 U/mg; in data set [1] (setting [10]), 256 ± 20 U/mg.
As for “Pyroglutamoyl-P/A(20)-aminohexanoyl-Crisantaspase [Crisantaspase/PA(20) modified protein]”, in data set [2], the “Nessler (Average)” value is listed as 676 IU/mg, the “Nessler Plate 1” value is 694 IU/mg, the “Nessler Plate 2” value came out at 732 IU/mg and the “Nessler Plate 3” value is listed as 602 IU/mg. In addition, the “Enzyme activity compared to the equally assayed non-modified Crisantaspase” value in data set [1] was determined as 91.2%. Besides, in data set [3], the t½ is recorded as 50.2 h. In addition, the apparent molecular size in data set [4] was determined as 531 kDa.
For “Pyroglutamoyl-P/A(40)-aminohexanoyl-Crisantaspase [Crisantaspase/PA(40) modified protein]”, in data set [2], the “Nessler (Average)” value came out at 528 IU/mg, the “Nessler Plate 1” value is on record as 567 IU/mg, the “Nessler Plate 2” value is 528 IU/mg and the “Nessler Plate 3” value is reported as 490 IU/mg. For the same molecule, the “Enzyme activity compared to the equally assayed non-modified Crisantaspase” value in data set [1] was found to be 78.2%. The apparent molecular size in data set [4] is 820 kDa.

B1: Oncaspar®: E. coli L-asparaginase modified at multiple lysine residues using 5 kDa mPEG-succinimidyl succinate (conjugate, UniProt P00805 23-348, looked up)
L-asparaginase 2: LPNITILATGGTIAGGGDSATKSNYTVGKVGVENLVNAVPQLKDIANVKGEQVVNIGSQDMNDNVWLTLAKKINTDCDKTDGFVITHGTDTMEETAYFLDLTVKCDKPVVMVGAMRPSTSMSADGPFNLYNAVVTAADKASANRGVLVVMNDTVLDGRDVTKTNTTDVATFKSVNYGPLGYIHNGKIDYQRTPARKHTSDTPFDVSKLNELPKVGIVYNYANASDLPAKALVDAGYDGIVSAGVGNGNLYKSVFDTLATAAKTGTAVVRSSRVPTGATTQDAEVDDAKYGFVASGTLNPQKARVLLQLALTQTKDPQQIQQIFNQY
modifications: 5 kDa mPEG succinimidyl succinate
notes: E. coli L-asparaginase modified at multiple lysine residues using 5 kDa mPEG-succinimidyl succinate
B1: in data set [5], the in vitro activity entry was “approximately 50%”. In addition, the “children who had an allergic reaction” value in data set [6] is on record as 30-41%.
